Laboratory results published in patent publication US20240043508A1 (KOOKMIN UNIVERSITY INDUSTRY ACADEMY COOPERATION FOUNDATION, published 2024).
Like-named read-outs stand apart in the source and are kept apart here.

B1: RD3 (antibody, V domains shown)
VH: EVQLLESGGGLVQPGGSLRLSCAASGFTFSDYAMSWVRQAPGKGLEWVSWIYSGSGNKYYADSVKGRFTISRDNSKNTLYLQMNSLRAEDTAVYYCARFPIARTSNSQSSYDGMDVWGQGTLVTVSS
VL: QSVLTQPPSASGTPGQRVTISCSGSSSNIGSNAVSWYQQLPGTAPKLLIYADNKRPSGVPDRFSGSKSGTSASLAISGLRSEDEADYYCGAWDSSLNAYVFGGGTKLTVL
notes: also called K102.1
B2: RD10 (antibody, V domains shown)
VH: EVQLLESGGGLVQPGGSLRLSCAASGFTFSDYAMSWVRQAPGKGLEWVSAIYPGGGSTYYADSVKGRFTISRDNSKNTLYLQMNSLRAEDTAVYYCARNLFGFDYWGQGTLVTVSS
VL: QSVLTQPPSASGTPGQRVTISCTGSSSNIGSNAVYWYQQLPGTAPKLLIYDDSNRPSGVPDRFSGSKSGTSASLAISGLRSEDEADYYCGSWDDSLSAYVFGGGTKLTVL
B3: RB6 (antibody, V domains shown)
VH: EVQLLESGGGLVQPGGSLRLSCAASGFTFSSYDMSWVRQAPGKGLEWVSGISYSGGSTYYADSVKGRFTISRDNSKNTLYLQMNSLRAEDTAVYYCARDVNFVPLVTFDYWGQGTLVTVSS
VL: QSVLTQPPSASGTPGQRVTLSCTGSSSNIGSNSVTWYQQLPGTAPKLLIYDDNQRPSGVPDRFSGSKSGTSASLAISGLRSEDEADYYCGTWDYSLSAYVFGGGTKLTVL
notes: also called K102.2
B4: HA-tagged K102.2 (K102.2-HA) (antibody, V domains shown)
VH: EVQLLESGGGLVQPGGSLRLSCAASGFTFSSYDMSWVRQAPGKGLEWVSGISYSGGSTYYADSVKGRFTISRDNSKNTLYLQMNSLRAEDTAVYYCARDVNFVPLVTFDYWGQGTLVTVSS
VL: QSVLTQPPSASGTPGQRVTLSCTGSSSNIGSNSVTWYQQLPGTAPKLLIYDDNQRPSGVPDRFSGSKSGTSASLAISGLRSEDEADYYCGTWDYSLSAYVFGGGTKLTVL
B5: RG6 (antibody, V domains shown)
VH: EVQLLESGGGLVQPGGSLRLSCAASGFTFSDYSMSWVRQAPGKGLEWVSGIYHSDGSKYYADSVKGRFTISRDNSKNTLYLQMNSLRAEDTAVYYCARFDPVFDYWGQGTLVTVSS
VL: QSVLTQPPSASGTPGQRVTISCTGSSSNIGSNAVNWYQQLPGTAPKLLIYADSNRPSGVPDRFSGSKSGTSASLAISGLRSEDEADYYCGAWDASLSAYVFGGGTKLTVL
B6: RB4 (antibody, V domains shown)
VH: EVQLLESGGGLVQPGGSLRLSCAASGFTFSDYSMSWVRQAPGKGLEWVSGIYHSDGSKYYADSVKGRFTISRDNSKNTLYLQMNSLRAEDTAVYYCARFDPVFDYWGQGTLVTVSS
VL: QSVLTQPPSASGTPGQRVTISCSGSSSNIGSNAVSWYQQLPGTAPKLLIYDNNHRPSGVPDRFSGSKSGTSASLAISGLRSEDEADYYCGSWDDSLNAYVFGGGTKLTVL

How the values were obtained:
[1] = target: T1, SARS-CoV-2 S protein of the wild-type, on pseudotyped lentiviral particles (SARS-CoV-2); experiment: cell-based or functional assay
SARS-CoV RBD = SARS-CoV RBD (SARS-CoV, UniProt P59594 306-527); experiment: ELISA, 0.1 ug antigen coated
[2] = target: T1, SARS-CoV-2 S protein of the wild-type, …; experiment: cell-based or functional assay; remark: listed apart in the source
SARS-CoV-2 S1 domain = SARS-CoV-2 S1 domain (SARS-CoV-2, UniProt P0DTC2 14-685); experiment: ELISA: IgG titrated on plate-bound S1, absorbance at 450 nm
[3] = target: SARS-CoV-2 RBD protein (Fc-tagged) (SARS-CoV-2, UniProt P0DTC2 319-541)
[4] = target: T2, SARS-CoV-2 RBD (wild-type) (SARS-CoV-2, UniProt P0DTC2 319-541); experiment: ELISA, antigen coated, antibody titrated, A450
[5] = target: T2, SARS-CoV-2 RBD (wild-type)
[6] = target: T2, SARS-CoV-2 RBD (wild-type); experiment: competition ELISA: RBD-His with antibody, binding to coated hACE2-Fc
[7] = target: T2, SARS-CoV-2 RBD (wild-type); experiment: SPR, RBD immobilised
[8] = target: T2, SARS-CoV-2 RBD (wild-type); experiment: SPR (FIG. 24)
[9] = target: T2, SARS-CoV-2 RBD (wild-type); experiment: SPR, RBD immobilised, 1:1 model
[10] = target: T2, SARS-CoV-2 RBD (wild-type); remark: listed apart in the source

Row | Binder | binding result (SARS-CoV RBD) | Kd (SARS-CoV-2 S1 domain) [nM] | IC50 [3] [nM] | Kd [5] [nM] | further results
1 | B1 | binds | – | – | – | IC50 (nM), pseudotyped virus infection [1]: 1.94 nM; IC50 (nM), pseudovirus neutralization, luciferase in 293T/hACE2 cells [2]: 1.94 nM
2 | B2 | – | 0.317 | 1.97 | 0.55 | Kd [4]: ~0.1 nM
3 | B3 | binds | 3.2 | 1.95 | 0.716 | IC50 [6]: 4.94 nM; Kd [7]: 2.2 nM; kon [7]: 197000 M⁻¹ s⁻¹; Kd [8]: 2.46 nM; fold affinity against K102.3 [8]: ~5 fold; Kd [9]: 2.2 nM; kon [9]: 197000 M⁻¹ s⁻¹
4 | B4 | – | – | – | – | EC50 (read off the curve) [10]: ~0.05 µg/mL
5 | B5 | – | 0.22 | – | 0.481 | –
6 | B6 | – | 0.169 | 0.841 | 0.186 | –
